This assay has as its target BTLA (B and T lymphocyte attenuator) on human lymphoma B cells (human, UniProt Q7Z6A9 31-289). Kind of assay: cell-based or functional assay.

B1: Leu39-Val202 soluble HVEM ectodomain polypeptide (receptor)
chain: LPSCKEDEYPVGSECCPKCSPGYRVKEACGELTGTVCEPCPPGTYIAHLNGLSKCLQCQMCDPAMGLRASRNCSRTENAVCGCSPGHFCIVQDGDHCAACRAYATSSPGQRVQKGGTESQDTLCQNCPPGTFSPNGTLEECQHQTKCSWLVTKAGAGTSSSHWV
As to B1, the “correlation of percent pSyk inhibition by solHVEM with BTLA surface expression (ratio of MFI), ten primary human FL B cell samples” value came to 0.697 r.

Values taken from patent publication US20190071487A1 (Memorial Sloan Kettering, published 2019).
